Experimental data published in patent US20150216795A1 (SANOFI, priority 2012, published 2015).

Assays:
[1] = tested on: pregnant rabbits; assay: Embryo-fetal toxicity study; type: in vivo, rabbit; conditions: every 3 days during organogenesis, intravenous, all doses tested
Excerpt: Adverse embryo-fetal effects included increased incidences of postimplantation losses and external (including anasarca, umbilical hernia, diaphragmatic hernia and gastroschisis, cleft palate, ectrodactyly, and atresia), visceral (in the heart, great vessels, and arteries), and skeletal fetal malformations (including fused vertebrae, sternebrae, and ribs; supernumerary arches and ribs, and incomplete ossification). […] The incidence and severity of fetal anomalies increased with increasing dose.

[2] = molecular target: T1, human VEGF-B (Homo sapiens, UniProt P49765); assay: Binding, equilibrium dissociation constant
T1 sequence (P49765 31-129 limits assumed): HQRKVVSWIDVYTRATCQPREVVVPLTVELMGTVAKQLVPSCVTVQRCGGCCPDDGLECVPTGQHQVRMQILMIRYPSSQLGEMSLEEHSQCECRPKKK
Excerpt: (§1) This inhibition can result in decreased neovascularization and decreased vascular permeability.

[3] = molecular target: T2, human PIGF-2 (Homo sapiens, UniProt P49763); assay: Binding, equilibrium dissociation constant
T2 sequence (P49763 19-170 isoform P49763-3 limits assumed): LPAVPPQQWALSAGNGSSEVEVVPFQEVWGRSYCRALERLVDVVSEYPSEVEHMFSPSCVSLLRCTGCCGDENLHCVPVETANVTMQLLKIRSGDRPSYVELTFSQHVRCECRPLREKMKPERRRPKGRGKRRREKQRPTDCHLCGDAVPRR
Excerpt: as §1

[4] = Population pharmacokinetic analysis; type: in vivo, human
Excerpt: There are no data available for patients with severe hepatic impairment.
There is no data available for patients with severe hepatic impairment (total bilirubin>3×ULN and any SGOT/AST).

[5] = tested on: patients with metastatic colorectal cancer (MCRC)
Description: Each randomized patient was to be treated until disease progression, death, or unacceptable toxicity.
Treatment arms were evenly balanced for demographics, disease characteristics and prior anti-cancer treatments, including prior exposition to bevacizumab.
Patients received a median of 9 cycles of ZALTRAP/FOLFIRI or 8 cycles of placebo/FOLFIRI.

[6] = tested on: patients with metastatic colorectal cancer (MCRC); assay: EFC10262 (VELOUR) randomized double-blind phase 3 study: efficacy (OS, PFS, response rate);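 note: Placebo-controlled comparison, both arms on FOLFIRI every 2 weeks until progression or intolerable toxicity, in patients progressing on or within 6 months after oxaliplatin-based combination chemotherapy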
Description: Each randomized patient was to be treated until disease progression, death, or unacceptable toxicity. […] The predefined statistical significance level for this final analysis was 0.0466 after adjusting the type I error spent for the two interim analyses using the O'Brien-Fleming spending function.
The study included one formal interim analysis, planned for the purpose of efficacy, when 561 death events (65% information time) had occurred. Upon request of the independent Data Monitoring Committee (DMC), an additional interim analysis of OS was performed to provide an early evaluation of the benefit-risk ratio, when 315 death events (36.5% information fraction) had occurred.
A total of approximately 863 deaths were required to detect 20% hazard rate reduction in OS with 90% power using the two-sided log rank test at an overall 0.0499 alpha level. The median survival times was expected to be 11 months for the control group. The overall alpha level was split between overall survival (0.0499) and progression-free survival as a secondary efficacy endpoint (0.0001).
Approximately 1200 patients (i.e. 600 patients per treatment group) were planned to be randomized. Treatment assignment was stratified according to prior therapy with bevacizumab (yes or no), and ECOG performance status (PS) (0 vs 1 vs 2).
The enrolment started in November 2007 and was completed in March 2010. A total of 1226 patients were randomized. […] Treatment arms were evenly balanced for demographics, disease characteristics and prior anti-cancer treatments, including prior exposition to bevacizumab.
Immediately after, patients received irinotecan, 5-FU and leucovorin (FOLFIRI regimen). This treatment was repeated every 2 weeks.
Study 1 was a randomized, double-blind, placebo-controlled study in patients with metastatic colorectal cancer (mCRC) who are resistant to or have progressed during or within 6 months of receiving oxaliplatin-based combination chemotherapy, with or without prior bevacizumab. A total of 1226 patients were randomized (1:1) to receive either ZALTRAP (N=612; 4 mg per kg as a 1 hour intravenous infusion on day 1) or placebo (N=614), in combination with 5-fluorouracil plus irinotecan [FOLFIRI: irinotecan 180 mg per m2 IV infusion over 90 minutes and leucovorin (dl racemic) 400 mg per m^2 intravenous infusion over 2 hours at the same time on day 1 using a Y-line, followed by 5-FU 400 mg per m^2 intravenous bolus, followed by 5-FU 2400 mg per m^2 continuous intravenous infusion over 46-hours]. The treatment cycles on both arms were repeated every 2 weeks. Patients were treated until disease progression or unacceptable toxicity. The primary efficacy endpoint was overall survival. Treatment assignment was stratified by the ECOG performance status (0 versus 1 versus 2) and according to prior therapy with bevacizumab (yes or no).

[7] = tested on: patients with solid tumors; assay: Cardiac electrophysiology, QTc study; type: in vivo, human; conditions: 6 mg/kg intravenous every three weeks; 87 patients; large = greater than 20 ms
Description: The effect of 6 mg/kg intravenous ZALTRAP every three weeks on QTc interval was evaluated in 87 patients with solid tumors in a randomized, placebo-controlled study. […] However, a small increase in the mean QTc interval (i.e., less than 10 ms) cannot be excluded due to limitations of the study design.

[8] = tested on: rabbits; assay: Excisional and incisional skin wound healing models; type: in vivo, rabbit; conditions: for wound healing: repeated administration
[9] = tested on: colorectal, pancreatic, and lung cancer populations; assay: Three Phase 3 placebo-controlled clinical studies, GI perforation; type: in vivo, human; conditions: across three Phase 3 placebo-controlled studies
Excerpt: Gastrointestinal (GI) perforation including fatal GI perforation can occur in patients receiving ZALTRAP. Across three Phase 3 placebo-controlled clinical studies (colorectal, pancreatic, and lung cancer populations), the incidence of GI perforation (all grades) was 0.8% for patients treated with ZALTRAP and 0.3% for patients treated with placebo. Grade 3-4 GI perforation events occurred in 0.8% of patients treated with ZALTRAP and 0.2% of patients treated with placebo.

[10] = tested on: patients with various cancers; assay: Immunogenicity, anti-product antibody (APA) across 15 studies; type: in vivo, human
Excerpt: As with all therapeutic proteins, there is a potential for immunogenicity. In patients with various cancers across 15 studies, 1.4% (41/2862) of patients tested positive for anti-product antibody (APA) at baseline. […] Among patients who tested positive for APA and had sufficient samples for further testing, neutralizing antibodies were detected in 17 of 48 ziv-aflibercept-treated patients and in 2 of 40 patients receiving placebo.
Immunogenicity data are highly dependent on the sensitivity and specificity of the assay. Additionally, the observed incidence of antibody positivity in an assay may be influenced by several factors, including sample handling, timing of sample collection, concomitant medications, and underlying disease. For these reasons, comparison of the incidence of antibodies to ZALTRAP with the incidence of antibodies to other products may be misleading.

[11] = tested on: sexually immature cynomolgus monkeys; assay: 3-month intravenous toxicology study; type: in vivo, cynomolgus monkey; conditions: after a post-dosing recovery period
[12] = tested on: previously treated patients with metastatic colorectal cancer; conditions: pre-treated patients with MCRC; cited from earlier work
[13] = tested on: endothelial cells; assay: Endothelial cell proliferation in animals; type: in vivo
Excerpt: as §1

[14] = Clinical pharmacokinetics, plasma free ziv-aflibercept by ELISA; type: in vivo, human
[15] = tested on: non-small cell lung cancer (NSCLC); conditions: added to docetaxel vs docetaxel plus placebo; cited from earlier work
[16] = tested on: xenotransplanted colon tumors; assay: Xenotransplanted colon tumor growth; type: in vivo; conditions: mice
Excerpt: as §1

[17] = tested on: sexually mature cynomolgus monkeys; assay: 6-month repeat-dose toxicology study; type: in vivo, cynomolgus monkey
Description: Reversibility was observed within 18 weeks after cessation of treatment. Systemic exposure (AUC) with a 3 mg per kg per dose in monkeys was approximately 60% of the AUC in patients at the recommended dose.
Most ziv-aflibercept-related findings were noted from the lowest dose tested (3 mg per kg per dose) correlating to 60% of the AUC at the human recommended dose.

[18] = tested on: patients with cancer; assay: Pooled safety across completed studies (RPLS, TMA); type: in vivo, human
Excerpt: Severe proteinuria, nephrotic syndrome, and thrombotic microangiopathy (TMA) occurred more frequently in patients treated with ZALTRAP. In patients with mCRC, proteinuria was reported in 62% patients treated with ZALTRAP/FOLFIRI compared to 41% patients treated with placebo/FOLFIRI. Grade 3-4 proteinuria occurred in 8% of patients treated with ZALTRAP/FOLFIRI to 1% of patients treated with placebo/FOLFIRI [see Adverse Reactions (6.1)]. Nephrotic syndrome occurred in 2 patients (0.5%) treated with ZALTRAP/FOLFIRI compared to none of the patients treated with placebo/FOLFIRI. TMA was reported in 3 of 2258 patients with cancer enrolled across completed studies.
RPLS (also known as posterior reversible encephalopathy syndrome) was reported in 0.5% of 3795 patients treated with ZALTRAP monotherapy or in combination with chemotherapy.

[19] = includes death due to disease progression

**Q.** Which embryo-fetal toxicity [1] does the source give for “ziv-aflibercept: recombinant fusion protein of VEGF-binding portions of human VEGF Receptors 1 and 2 fused to the Fc portion of human IgG1 (SEQ ID NO:1)” here?
**A.** produced embryo-fetal toxicity

**Q.** What about the embryo-fetal toxicity ([1]; listed as ZALTRAP) of the same substance?
**A.** embryotoxic and teratogenic

**Q.** And the Kd [2]?
**A.** 1.92 pM

**Q.** What about the Kd [3] of the same substance?
**A.** 0.039 nM

**Q.** What about the “increase in systemic exposure in patients weighing >=100 kg” value ([4]; compared to patients weighing 50 to 100 kg) of the same substance?
**A.** 29%

**Q.** What about the “pharmacokinetic drug-drug interactions with irinotecan/SN-38 or 5-FU” value ([4]; cross-study comparisons and population pharmacokinetic analyses) of the same substance?
**A.** No clinically important pharmacokinetic drug-drug interactions

**Q.** And the “exposure in patients with mild and moderate hepatic impairment vs normal hepatic function” value ([4]; data from 1507 patients)?
**A.** similar

**Q.** And the “exposure in patients with mild, moderate, and severe renal impairment vs normal renal function” value ([4]; data from 1507 patients)?
**A.** similar

**Q.** And the “effect of age, race, and gender on the exposure of free ziv-aflibercept” value ([4]; in vivo)?
**A.** did not have a clinically important effect

**Q.** What about the “Grade 3 GI fistula formation” value ([5]; 2 patients) of the same substance?
**A.** 0.3%

**Q.** What about the “Patients with any TEAE leading to death” value ([5]; Safety population N = 611) of the same substance?
**A.** 37 (6.1%) number (%) of patients

**Q.** And the “dose reduced and/or omitted” value ([5]; Study 1)?
**A.** 17 % of patients

**Q.** And the “occurrence of grade 3-4 treatment emergent adverse events” value ([5]; in vivo)?
**A.** 83.5%

**Q.** And the “premature treatment discontinuation due to adverse events” value ([5]; in vivo)?
**A.** 19.5%

**Q.** What about the “rate of permanent discontinuation of study treatment due to adverse events” value ([5]; in vivo) of the same substance?
**A.** 26.8%

**Q.** And the “patients with adverse events that led to death after 30 days of last dosing” value [5, 19]?
**A.** 12

**Q.** And the “patients with adverse events that led to death within 30 days of last dosing” value [5, 19]?
**A.** 28

**Q.** And the “estimated probability of being alive” value ([6]; 12 months from randomization)?
**A.** 56.1%

**Q.** What about the “estimated probability of being alive” value ([6]; 18 months from randomization) of the same substance?
**A.** 38.5%

**Q.** And the “Median overall survival (95.34% CI)” value ([6]; ITT population, all patients, cutoff 7 FEB. 2011)?
**A.** 13.50 months

**Q.** And the “Median PFS (99.99% CI)” value ([6]; ITT population, all patients, tumor assessment by the IRC, cutoff 6 MAY 2010)?
**A.** 6.90 months

**Q.** And the “Overall Response: Responders (Complete response or Partial response), %” value ([6]; by IRC, evaluable patient population N = 531)?
**A.** 19.8%

**Q.** And the “reduction of risk of death” value ([6]; compared to placebo, from hazard ratio)?
**A.** 18.3%

**Q.** What about the “PFS HR (99.99% CI)” value ([6]; liver metastasis only group) of the same substance?
**A.** 0.547

**Q.** What about the “PFS HR (99.99% CI)” value ([6]; no liver metastasis, or other metastases group) of the same substance?
**A.** 0.839

**Q.** And the “change in the mean QT interval from baseline (Fridericia correction)” value [7]?
**A.** No large changes in the mean QT interval

**Q.** And the “full-thickness excisional and incisional skin wound model findings” value ([8]; rabbit, in vivo)?
**A.** reduced fibrous response, neovascularization, epidermal hyperplasia/re-epithelialization, and tensile strength

**Q.** What about the wound healing [8] of the same substance?
**A.** delay in wound healing

**Q.** And the wound healing ([8]; listed as ZALTRAP)?
**A.** impairs wound healing

**Q.** What about the “Grade 3-4 GI perforation events” value [9] of the same substance?
**A.** 0.8%

**Q.** What about the “incidence of GI perforation (all grades)” value [9] of the same substance?
**A.** 0.8%

**Q.** What about the neutralizing antibodies detected ([10]; among APA-positive patients with sufficient samples) of the same substance?
**A.** 17 of 48

**Q.** What about the “incidence of APA development” value ([10]; intravenous, 53/1687 patients) of the same substance?
**A.** 3.1%

**Q.** What about the “mean free ziv-aflibercept trough concentrations in patients with positive neutralizing antibodies” value ([10]; versus the overall population) of the same substance?
**A.** lower

**Q.** And the “reversibility of skeletal and nasal cavity effects” value [11]?
**A.** not reversible

**Q.** And the tolerability [12]?
**A.** well tolerated

**Q.** What about the “proliferation of endothelial cells” value [13] of the same substance?
**A.** inhibit the proliferation of endothelial cells

**Q.** What about the “dose linearity of free ziv-aflibercept concentrations” value ([14]; dose range of 2-9 mg/kg) of the same substance?
**A.** linear pharmacokinetics

**Q.** What about the “Steady state concentrations of free ziv-aflibercept reached” value ([14]; human, in vivo) of the same substance?
**A.** by the second dose

**Q.** What about the “primary endpoint of improvement in overall survival” value [15] of the same substance?
**A.** did not meet the pre-specified criteria

**Q.** And the “growth of xenotransplanted colon tumors” value [16]?
**A.** inhibited the growth

**Q.** And the “reproductive function and fertility” value ([17]; all doses tested including 3 mg per kg)?
**A.** impaired reproductive function and fertility

**Q.** And the “reversibility of reproductive findings after cessation of treatment” value ([17]; monkeys)?
**A.** ≤ 18 weeks

**Q.** And the repeat-dose toxicity findings ([17]; weekly/every two weeks intravenous for up to 6 months, from 3 mg per kg per dose)?
**A.** changes in the bone

**Q.** What about the “RPLS (posterior reversible encephalopathy syndrome)” value ([18]; 3795 patients, monotherapy or in combination with chemotherapy) of the same substance?
**A.** 0.5%

**Q.** What about the “thrombotic microangiopathy (TMA)” value ([18]; patients with cancer enrolled across completed studies) of the same substance?
**A.** 3 of 2258
